Data reported in article PMC11039992, “Distinct functions for the paralogous RBM41 and U11/U12-65K proteins in the minor spliceosome”.

T1: U11/U12-65K C-terminal RRM (65K C-RRM) (Homo sapiens, UniProt Q96LT9 380-517)
T1 sequence: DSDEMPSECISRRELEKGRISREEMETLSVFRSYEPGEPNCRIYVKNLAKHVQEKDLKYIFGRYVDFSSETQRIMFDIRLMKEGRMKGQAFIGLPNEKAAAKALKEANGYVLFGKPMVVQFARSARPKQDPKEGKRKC

T2: RBM41 RRM (C-terminal fragment) (Homo sapiens, UniProt Q96IZ5 267-413)
T2 sequence: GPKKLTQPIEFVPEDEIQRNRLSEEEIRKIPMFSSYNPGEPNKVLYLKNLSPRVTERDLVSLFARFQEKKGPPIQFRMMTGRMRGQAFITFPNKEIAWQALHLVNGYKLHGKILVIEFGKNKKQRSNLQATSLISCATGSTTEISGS


Columns and labels:
[1] = biological target: T1, U11/U12-65K C-terminal RRM (65K C-RRM); experiment: EMSA; 20 mM HEPES-KOH pH 8.0, 100 mM KCl, 1.5 mM MgCl2, 5% glycerol, 0.1 ug/ul BSA, 1 ug/ul yeast RNA, 1 U/ul RiboLock; 5 nM RNA, 0.25-25 uM protein; 1 h on ice, gel; conditions: protein: recombinant; tags: GST tag removed with PreScission protease (untagged); label: 5' 32P; hairpin
[2] = biological target: T2, RBM41 RRM (C-terminal fragment); experiment: as above; conditions: protein: recombinant; tags: GST tag removed with PreScission protease (untagged); label: 5' 32P; hairpin

Row | Binder | Kd [1] [nM] | Kd [2] [nM] | binding result [1] | binding result [2]
1 | GCCACCUACUUCGUGGC (structured_RNA) [U6atac-(92-108) hairpin] | 2070 | 3780 |  | 
2 | GGGCGGAUGAAACGCCC (structured_RNA) [U12comp control hairpin] |  |  | no binding | no binding
3 | CCCGCCUACUUUGCGGG (structured_RNA) [U12-(109-125) hairpin] | 1040 | 2140 |  | 
